The record followed here is patent US20180044385A1.

The assay concerns the target Fab with lambda light chain (Cλ). The experiment in a line: ELISA; reference is the Fab with kappa light chain.

“wild-type Protein-G (C2 domain / Fab binding domain)”: the EC50 ratio, Cλ Fab over CK Fab was determined as 7 fold.
